These results are taken from IntAct's records for PubMed 23075851.

For one assay, the target named is caf1a_human CHAF1A (UniProt Q13111).
Assay [1] deals with DAXX, Q9UER7-1.
Assay [2] addresses DAXX, Q9UER7-1. This is another data set of the same source.
The target of the next assay is asf1b_human ASF1B (UniProt Q9NVP2).
Chain of asf1b_human ASF1B (Q9NVP2 whole entry): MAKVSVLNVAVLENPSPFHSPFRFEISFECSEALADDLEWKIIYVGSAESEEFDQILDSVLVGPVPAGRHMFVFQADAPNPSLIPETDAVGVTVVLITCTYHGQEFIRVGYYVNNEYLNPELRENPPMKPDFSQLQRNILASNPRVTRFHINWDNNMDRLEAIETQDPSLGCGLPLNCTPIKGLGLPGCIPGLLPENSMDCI

Chain of DAXX, Q9UER7-1 (Q9UER7 whole entry): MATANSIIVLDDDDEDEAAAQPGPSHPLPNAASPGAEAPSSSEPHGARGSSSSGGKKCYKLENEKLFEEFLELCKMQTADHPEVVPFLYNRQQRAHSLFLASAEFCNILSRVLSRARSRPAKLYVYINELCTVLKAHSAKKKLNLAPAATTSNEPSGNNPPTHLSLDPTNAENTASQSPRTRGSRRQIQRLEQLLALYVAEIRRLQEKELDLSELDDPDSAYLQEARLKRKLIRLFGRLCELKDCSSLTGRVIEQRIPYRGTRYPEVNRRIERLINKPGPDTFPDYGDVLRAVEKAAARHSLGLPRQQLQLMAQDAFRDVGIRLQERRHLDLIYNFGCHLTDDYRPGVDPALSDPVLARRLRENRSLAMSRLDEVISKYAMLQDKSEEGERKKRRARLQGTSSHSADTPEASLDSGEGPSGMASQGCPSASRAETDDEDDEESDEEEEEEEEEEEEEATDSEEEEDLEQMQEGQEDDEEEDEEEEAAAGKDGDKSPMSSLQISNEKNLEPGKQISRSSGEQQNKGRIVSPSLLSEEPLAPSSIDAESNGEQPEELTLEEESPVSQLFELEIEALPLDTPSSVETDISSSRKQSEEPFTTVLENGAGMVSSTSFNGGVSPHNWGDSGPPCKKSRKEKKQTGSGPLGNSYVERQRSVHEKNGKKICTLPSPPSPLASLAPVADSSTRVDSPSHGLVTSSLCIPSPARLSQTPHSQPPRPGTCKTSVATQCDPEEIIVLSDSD
Chain of caf1a_human CHAF1A (Q13111 whole entry): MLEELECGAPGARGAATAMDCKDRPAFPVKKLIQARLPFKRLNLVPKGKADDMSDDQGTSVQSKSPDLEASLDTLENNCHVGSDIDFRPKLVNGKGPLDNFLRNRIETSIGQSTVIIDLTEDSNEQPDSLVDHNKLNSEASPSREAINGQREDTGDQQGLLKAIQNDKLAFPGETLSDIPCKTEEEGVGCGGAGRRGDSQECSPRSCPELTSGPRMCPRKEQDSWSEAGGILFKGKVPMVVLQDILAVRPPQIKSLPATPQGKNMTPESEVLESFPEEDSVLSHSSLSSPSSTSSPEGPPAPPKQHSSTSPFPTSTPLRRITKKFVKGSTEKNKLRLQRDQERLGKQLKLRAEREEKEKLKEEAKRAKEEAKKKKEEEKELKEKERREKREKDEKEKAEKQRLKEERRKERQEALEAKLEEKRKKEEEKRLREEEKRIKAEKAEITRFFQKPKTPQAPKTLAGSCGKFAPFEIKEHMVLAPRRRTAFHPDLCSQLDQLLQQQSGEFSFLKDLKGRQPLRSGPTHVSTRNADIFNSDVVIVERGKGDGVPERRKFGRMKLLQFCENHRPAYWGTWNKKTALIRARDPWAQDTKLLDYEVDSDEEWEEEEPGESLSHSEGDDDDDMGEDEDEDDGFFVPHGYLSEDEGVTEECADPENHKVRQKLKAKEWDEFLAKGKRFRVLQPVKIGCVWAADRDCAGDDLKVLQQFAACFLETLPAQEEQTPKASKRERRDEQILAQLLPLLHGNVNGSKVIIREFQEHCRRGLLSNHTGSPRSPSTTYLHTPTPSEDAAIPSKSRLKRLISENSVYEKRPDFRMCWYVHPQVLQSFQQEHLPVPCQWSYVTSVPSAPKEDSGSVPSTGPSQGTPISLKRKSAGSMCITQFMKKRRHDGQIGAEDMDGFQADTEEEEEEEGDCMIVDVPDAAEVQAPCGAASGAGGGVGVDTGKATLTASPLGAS

With “Histone H3.3 (Homo sapiens) (from UniProt P84243) G91M”, the “effect of a mutation on the interaction” value is on record as “increasing interaction strength” with caf1a_human CHAF1A and “decreasing interaction strength” in the assay with DAXX, Q9UER7-1 [1].

Regarding “Histone H3.2 (Homo sapiens) (from UniProt Q71DI3) M91G”, the “effect of a mutation on the interaction” value with DAXX, Q9UER7-1 [2] is on record as “increasing interaction strength”.

Regarding “Histone H3.3 (Homo sapiens) (from UniProt P84243) C111E”, in the assay with asf1b_human ASF1B, the “effect of a mutation on the interaction” value was “disrupting interaction strength”.
